These results are taken from patent US20200317744A1 (published 2020).

Test [1] deals with murine IL-2Rβ (mIL-2Rβ) (mouse) (UniProt P16297). Description: SPR; mIL-2Rβ immobilised. On the technique in general: SPR reads the build-up and loss of mass on a sensor chip optically.
The target of test [2] is murine IL-2 receptor βγc heterodimer (mIL-2Rβγc) (mouse) (UniProt P16297). Briefly: SPR; mIL-2Rγ immobilised, saturating mIL-2Rβ in solution.
Test [3] concerns the target human IL-2Rβγc on YT-1 human natural killer cells (human) (UniProt P14784). Description: cell-based or functional assay.
For test [4], the target named is human IL-2Rβ (hIL-2Rβ) (human) (UniProt P14784). Description: SPR; hIL-2Rβ immobilised.
Sequence of human IL-2Rβ (hIL-2Rβ) (human) (P14784 other isoform, or with tags, fused parts or gaps): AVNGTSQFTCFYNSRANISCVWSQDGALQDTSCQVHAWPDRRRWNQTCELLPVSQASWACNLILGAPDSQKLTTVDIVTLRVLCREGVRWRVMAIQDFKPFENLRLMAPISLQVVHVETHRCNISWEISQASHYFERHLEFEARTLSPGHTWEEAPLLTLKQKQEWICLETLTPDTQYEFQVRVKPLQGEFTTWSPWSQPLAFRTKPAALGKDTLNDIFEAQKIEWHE
For test [5], the target named is human IL-2 receptor βγc heterodimer (hIL-2Rβγc) (human) (UniProt P14784). Briefly: SPR; hIL-2Rγ immobilised, saturating hIL-2Rβ in solution.
Sequence of human IL-2 receptor βγc heterodimer (hIL-2Rβγc) (human) (P14784 27-240, one chain of several): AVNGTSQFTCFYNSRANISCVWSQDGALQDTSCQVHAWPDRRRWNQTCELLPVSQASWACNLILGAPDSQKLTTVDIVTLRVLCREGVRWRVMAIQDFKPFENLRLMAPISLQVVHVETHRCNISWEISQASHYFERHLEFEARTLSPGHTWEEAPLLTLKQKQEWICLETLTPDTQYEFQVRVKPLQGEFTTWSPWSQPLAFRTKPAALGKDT
Test [6] has as its target IL-2Rβγc (species not stated). Briefly: biolayer interferometry. (Biolayer interferometry detects binding as a change in optical thickness at a sensor tip.)
The target of another test is T1, human IL-4Rα (human, UniProt P24394 26-232, limits assumed, biotinylated).
T1 construct: also called IL-4Rα receptor
T1 sequence (looked up): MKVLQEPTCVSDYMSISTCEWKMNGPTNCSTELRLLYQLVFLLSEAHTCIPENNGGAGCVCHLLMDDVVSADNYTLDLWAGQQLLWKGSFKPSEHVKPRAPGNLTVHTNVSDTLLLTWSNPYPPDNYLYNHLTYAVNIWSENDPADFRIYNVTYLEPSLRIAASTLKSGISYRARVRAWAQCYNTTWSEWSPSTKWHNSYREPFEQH
Description: biolayer interferometry.

In test [7] the target is T2, IL-4 receptor αγc heterodimer (IL-4Rαγc) (human, UniProt P24394 26-232; P31785 23-254, limits assumed, biotinylated at the C-terminal biotin acceptor peptide (BirA)).
T2 construct: also called γc when IL-4Rα is present in solution
T2 sequence 1: T1 sequence (looked up)
T2 sequence 2: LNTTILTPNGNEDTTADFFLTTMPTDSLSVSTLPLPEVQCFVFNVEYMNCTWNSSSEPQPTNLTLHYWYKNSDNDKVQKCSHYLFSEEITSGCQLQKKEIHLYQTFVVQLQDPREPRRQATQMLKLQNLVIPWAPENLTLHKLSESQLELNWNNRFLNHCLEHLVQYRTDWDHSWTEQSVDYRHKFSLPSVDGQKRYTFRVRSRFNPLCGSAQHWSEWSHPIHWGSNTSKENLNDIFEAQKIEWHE
Briefly: biolayer interferometry; γc on sensor, IL-4Rα in solution. On the procedure:
Less than 100 response units (RU) of each ligand was immobilized to minimize mass transfer effects. […] Surface regeneration for all interactions was conducted using 15 s exposure to 1 M MgCl2 in 10 mM sodium acetate pH 5.5. SPR experiments were carried out in HBS-P+ buffer (GE Healthcare) supplemented with 0.2% bovine serum albumin (BSA) at 25° C. and all binding studies were performed at a flow rate of […] to prevent analyte rebinding. Data was visualized and processed using the Biacore T100 evaluation software version 2.0 (GE Healthcare). Equilibrium titration curve fitting and equilibrium binding dissociation (KD) value determination was implemented using GraphPad Prism assuming all binding interactions to be first order. Biolayer interferometry: binding data were collected in a Octet RED96 (ForteBio, Menlo Park, Calif.) and processed using the instrument's integrated software using a 1:1 binding model. […] Analyte proteins were diluted from concentrated stocks into binding buffer.

Test [8] addresses murine IL-2 receptor βγc heterodimer (mIL-2Rβγc) (mouse) (UniProt P16297). Briefly: biolayer interferometry; biotin-mIL2Gamma on streptavidin sensor, MSA-Neo2 titrated 729 to 1 nM with saturating mIL2Beta.

Residue numbers refer to the chain shown, from its start.

Sequence of IL-2Rβγc (species not stated) (P14784 whole entry, chain 1 of 2): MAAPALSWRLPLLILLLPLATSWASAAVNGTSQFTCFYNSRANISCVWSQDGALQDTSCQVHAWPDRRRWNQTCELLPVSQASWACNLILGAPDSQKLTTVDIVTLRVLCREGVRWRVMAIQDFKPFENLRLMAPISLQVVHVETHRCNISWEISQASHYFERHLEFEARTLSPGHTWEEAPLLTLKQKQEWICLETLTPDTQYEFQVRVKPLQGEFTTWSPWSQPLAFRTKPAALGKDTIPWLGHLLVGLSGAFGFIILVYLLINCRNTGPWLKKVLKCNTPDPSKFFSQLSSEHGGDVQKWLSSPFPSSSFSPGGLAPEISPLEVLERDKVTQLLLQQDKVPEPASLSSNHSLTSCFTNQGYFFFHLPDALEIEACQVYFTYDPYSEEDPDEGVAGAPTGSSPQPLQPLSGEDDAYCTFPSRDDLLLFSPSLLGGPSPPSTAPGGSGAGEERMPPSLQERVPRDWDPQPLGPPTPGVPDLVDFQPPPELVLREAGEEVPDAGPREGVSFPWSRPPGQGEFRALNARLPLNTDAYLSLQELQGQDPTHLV
Sequence of IL-2Rβγc (species not stated) (P31785 whole entry, chain 2 of 2, further chain): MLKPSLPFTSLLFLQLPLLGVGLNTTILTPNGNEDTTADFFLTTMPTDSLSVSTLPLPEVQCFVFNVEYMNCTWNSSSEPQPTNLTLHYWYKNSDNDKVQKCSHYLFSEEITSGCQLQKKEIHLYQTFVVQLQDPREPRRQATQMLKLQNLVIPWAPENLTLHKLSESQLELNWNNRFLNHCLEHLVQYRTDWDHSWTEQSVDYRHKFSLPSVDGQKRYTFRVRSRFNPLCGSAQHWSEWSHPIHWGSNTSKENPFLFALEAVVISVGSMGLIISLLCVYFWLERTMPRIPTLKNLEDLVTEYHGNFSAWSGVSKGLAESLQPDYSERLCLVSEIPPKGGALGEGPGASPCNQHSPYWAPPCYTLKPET
Sequence of human IL-2Rβγc on YT-1 human natural killer cells (human) (P14784 27-551): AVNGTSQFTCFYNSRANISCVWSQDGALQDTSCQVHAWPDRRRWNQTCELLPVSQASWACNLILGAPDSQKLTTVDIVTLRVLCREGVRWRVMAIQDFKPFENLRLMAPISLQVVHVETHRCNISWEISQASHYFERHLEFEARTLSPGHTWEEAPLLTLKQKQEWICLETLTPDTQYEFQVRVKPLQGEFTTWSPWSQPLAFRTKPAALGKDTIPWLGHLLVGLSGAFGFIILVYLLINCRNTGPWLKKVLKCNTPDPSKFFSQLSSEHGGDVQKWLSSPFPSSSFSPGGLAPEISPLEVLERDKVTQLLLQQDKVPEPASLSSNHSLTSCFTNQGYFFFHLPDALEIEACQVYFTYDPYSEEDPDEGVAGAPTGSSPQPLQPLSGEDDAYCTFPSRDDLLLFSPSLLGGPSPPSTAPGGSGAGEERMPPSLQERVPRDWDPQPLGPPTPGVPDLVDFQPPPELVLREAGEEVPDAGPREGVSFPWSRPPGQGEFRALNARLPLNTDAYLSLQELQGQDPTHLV

A word on the Kd: it is the concentration at which binding is half-saturated. The low end stands for tighter binding, the high end for weaker binding. As for “human IL-2 (hIL-2) (from UniProt P60568 21-153) (ligand)”, the figures for the Kd in test [1] and in test [2] were 8110 nM and 492 nM, respectively.

In the case of “Neoleukin-2/15 (i.e. G2_neo2_40_1F_seq36_S11) (designed binder)”, the Kd was 16.1 nM in test [1] and 38.4 nM in [2]. The molecule Super-2/Superkine (PDB:3QAZ) (ligand) returned an EC50 (CD25-) pSTAT5, human NK (YT, CD25-) cells in test [3] of 70 pM. Also, the Kd was determined as 2 nM in test [4], 214 nM in [1], 301 nM in test [5] and 312 nM in test [2].

B1: mouse IL-2 (mIL-2) (ligand, UniProt P04351 21-169, looked up)
chain: APTSSSTSSSTAEAQQQQQQQQQQQQHLEQLLMDLQELLSRMENYRNLKLPRMLTFKFYLPKQATELKDLQCLEDELGPLRHVLDLTQSKSFQLEDAENFISNIRVTVVKLKGSDNTFECQFDDESATVVDFLRRWIAFCQSIISTSPQ
Consider B1, for which the Kd is 1500 nM in test [1] and 126 nM in test [2].

B2: Neoleukin-2/15 terminal disulfide-stapled variant (CNSN and NFQC added at the termini) (designed binder)
chain: CNSNKKKIQLHAEHALYDALMILNIVKTNSPPAEEKLEDYAFNFELILEEIARLFESGDQKDEAEKAKRMKEWMKRIKTTASEDEQEEMANAIITILQSWIFNFQC
modifications: disulfide bond between the added N-terminal and C-terminal cysteines
Regarding B2, in test [6], the equilibrium dissociation constant (Kd) was 1.8 nM.

B3: G2_neo2_40_1F_seq27 (designed binder)
chain: TKKKAQLLAEHALLDALMLLNLSSESNERLNRIITWLQSIIFTGTYDPDMVKEAVKLADEIEDEMRKRGIDTEDYVSNLRVILQELA
Take B3: the Kd in test [2] was 13.6 nM. This lies in the double-digit nanomolar range.

B4: G2_neo2_40_1F_seq26 (designed binder)
chain: TKKKYQLLIEHALLDALMILNLWSESNEKLNRIITTMQSWIFTGTYDPDKAEELEKLAKEIEDEARERGIDTEDYMSNLRVILKELS
B4: in [2], the Kd came out at 27.8 nM. This Kd is about 2-fold higher than that of the molecule before.

B5: G2_neo2_40_1F_seq36 (designed binder)
chain: PKKKIQLLAEHALLDALMILNIVKTNSQNAEEKLEDYASNVEVILEEIARLMESGDQKDEAEKAKRMKEWMKRIKTTASEDEQEEMANRIITLLQSWIFS
Consider B5, for which the Kd in test [1] worked out at 2430 nM; in test [2] it was 568 nM.

B6: G2_neo2_40_1F_seq40 (designed binder)
chain: PEKKRQLLAEHALLDALMILNIIRTNSDNTESKLEDYISNLKVILEEIARLMESLGLSDEAEKAKEAMRLADKAGSTASEEEKKEAMNRVITWAQSWIFN
In turn, B6 yielded a Kd in test [2] of 69.2 nM.

B7: G2_neo2_40_1F_seq30 (designed binder)
chain: PEKKRQLLLEHILLDALMLLNLLETNPQNTESKFEDYISNAEVIAEELAKLMESLGLSDEAEKFKKIKQWLREVWRIWSSTNWSTLEDKARELLNRIITTIQSQIFY
For B7, the Kd in test [2] worked out at 925 nM. Compared with the last molecule, the Kd is about 13-fold higher.

B8: Neoleukin-4 (i.e. IL4_G2_neo2_40_1F_seq36_S11_MIF) (designed binder)
chain: PKKKIQIMAEEALKDALSILNIVKTNSPPAEEQLERFAKRFERNLWGIARLFESGDQKDEAEKAKRMIEWMKRIKTTASEDEQEEMANAIITILQSWFFS
notes: also called Neo-4
Regarding B8, the binding result (with human IL-4Rα; in test [7]) was “binds” in each case.

B9: G2_neo2_40_1F_seq16 (designed binder)
chain: TKKKIQLLVEHALLDALMILNLSSKSNEKLNRIITTMQSWIFNGTIDPDRARELAKLVEEIRDEMEKNGIDTEDYVSNLKVILEELA
Regarding B9, the Kd in [2] came out at 71.5 nM.

B10: G1_neo2_40_1F_M1 (designed binder)
chain: STEKTQLAAEHALRDALMLKHLLNEPNEKLARIITTMQSWQFTGKIDGDGAQELAKEVEELQQEHEVRGIDVEDYASNLKVILLHLA
Regarding B10, the Kd stood at 214 nM in test [1] and 4.3 nM in [2].

B11: G1_neo2_40_1F_M3 (designed binder)
chain: B10 chain with L7H, H11D, K20R, H21N, G44E, H85Q
Consider B11, for which the Kd was 402 nM in test [1] and 64.8 nM in test [2].

B12: G1_neo2_40_1F_M2 (designed binder)
chain: B10 chain with E3K, K4N, H11D, R14L, K20R, H21N, G44E, V67E, H85Q
Regarding B12, the Kd in test [1] stood at 2600 nM; in [2], 886 nM.

B13: G2_neo2_40_1F_seq12 (designed binder)
chain: TEKKLQLLVEHALLDALMILNLWSESNEKLNRIITTMQSWIFTGRIDPDKAEELAKLVEELREEARERGIDTEDYVSNLKVILKELS
Molecule B13 had a Kd in test [2] of 39.1 nM.

B14: Mouse Serum Albumin (MSA) fusion to Neoleukin-2/15 (protein)
chain: GSDGGSHHHHHHGSGSENLYFQGSGEAHKSEIAHRYNDLGEQHFKGLVLIAFSQYLQKCSYDEHAKLVQEVTDFAKTCVADESAANCDKSLHTLFGDKLCAIPNLRENYGELADCCTKQEPERNECFLQHKDDNPSLPPFERPEAEAMCTSFKENPTTFMGHYLHEVARRHPYFYAPELLYYAEQYNEILTQCCAEADKESCLTPKLDGVKEKALVSSVRQRMKCSSMQKFGERAFKAWAVARLSQTFPNADFAEITKLATDLTKVNKECCHGDLLECADDRAELAKYMCENQATISSKLQTCCDKPLLKKAHCLSEVEHDTMPADLPAIAADFVEDQEVCKNYAEAKDVFLGTFLYEYSRRHPDYSVSLLLRLAKKYEATLEKCCAEANPPACYGTVLAEFQPLVEEPKNLVKTNCDLYEKLGEYGFQNAILVRYTQKAPQVSTPTLVEAARNLGRVGTKCCTLPEDQRLPCVEDYLSAILNRVCLLHEKTPVSEHVTKCCSGSLVERRPCFSALTVDETYVPKEFKAETFTFHSDICTLPEKEKQIKKQTALAELVKHKPKATAEQLKTVMDDFAQFLDTCCKAADKDTCFSTEGPNLVTRCKDALAGGGSGGSGGGSGGSGSGPKKKIQLHAEHALYDALMILNIVKTNSPPAEEKLEDYAFNFELILEEIARLFESGDQKDEAEKAKRMKEWMKRIKTTASEDEQEEMANAIITILQSWIFS
B14 showed a Kd in test [8] of 33.5 nM. In other words, the double-digit nanomolar range.

B15: G1_neo2_40_1F (designed binder)
chain: STKKTQLLAEHALLDALMMLNLLPEPNEKLNRIITTMQSWIFTGKIDGDGAQELAKEVEELEQEHEKRGIDVEDYASNLKVILLELA
On to B15, for which the Kd in [1] was found to be 486 nM; in [2], 7.9 nM.

B16: G1_neo2_40_1F_H2 (designed binder)
chain: B15 chain with A9L, M18H, L20R, N21R, L22N, N31S, I70R, Y75D
For the molecule B16, the Kd turned out to be 68300 nM in test [1] and 964 nM in [2].

B17: G1_neo2_40_1F_H1 (designed binder)
chain: B15 chain with A9I, M18D, L20S, N21R, L22N, N31S, E53Q, I70E, Y75E
For the molecule B17, the values for the Kd in test [1] and in test [2] were 6800 nM and 2650 nM, respectively.

B18: G1_neo2_40_1F_H4 (designed binder)
chain: B15 chain with A9L, M18H, L20S, N21R, L22E, T36D, E53D, I70G
Regarding B18, the figures for the Kd in [1] and in test [2] were 10100 nM and 392 nM, respectively.

B19: G1_neo2_40_1F_H5 (designed binder)
chain: B15 chain with A9I, M18H, L20S, N21R, L22K, N31S, E53H, I70G, D71E, Y75E
For B19, the values for the Kd in test [1] and in test [2] were 45300 nM and 5120 nM, respectively.

B20: G1_neo2_40_1F_H3 (designed binder)
chain: B15 chain with A9I, M18N, L20R, N21K, L22K, N31S, T36D, E53Q, I70G
B20 came in with a Kd in test [2] of 3830 nM.

B21: G2_neo2_40_1F_seq04 (designed binder)
chain: TTKKIQLLVEHALLDALMILNLSSESNEKLNRIITTLQSWIFRGEIDPDRARELAKLLEEIREEMRKRGIDTEDYVSNMIVIIRELA
B21 gave a Kd in [2] of 80 nM. Against the preceding molecule, the Kd is about 48-fold lower.

B22: Neoleukin-2/15 internal disulfide-stapled variant (disulfide between residues 38 and 75) (designed binder)
chain: PKKKIQLHAEHALYDALMILNIVKTNSPPAEEKLEDYCFNFELILEEIARLFESGDQKDEAEKAKRMKEWMKRICTTASEDEQEEMANAIITILQSWIFS
modifications: disulfide bond between residues 38 and 75
In turn, B22 had a Kd in [6] of 1.3 nM.

B23: G2_neo2_40_1F_seq29 (designed binder)
chain: EDYYSNLKVILEELAREMERNGLSDKAEEWRQWKKIVERIRQIRSNNSDLNEAKELLNRLITYIQSQIFEISERIRETDQEKKEESWKKWQLLLEHALLDVLMLLND
With B23, the Kd in test [2] came out at 38.2 nM. In other words, the double-digit nanomolar range.
